Measurements reported in article PMC10401002.

Biological target: endogenous human glyceraldehyde 3-phosphate dehydrogenase (GAPDH), 3xFLAG-tagged by CRISPR/Cas9 knock-in (human (endogenous in HEK293T)) (UniProt P04406)
Experiment: cryo-EM structure; single-particle cryo-EM of endogenous 3xFLAG-tagged protein purified from HEK293T (anti-FLAG M2, SEC in TBS) on amine-modified graphene oxide grids; GAPDH also from cytosol and nuclei after 8 and 24 h of oxidative stress (1 mM H2O2, 10 mM L-Arg)

Sequence of endogenous human glyceraldehyde 3-phosphate dehydrogenase (GAPDH), 3xFLAG-tagged by CRISPR/Cas9 knock-in, P04406 1-335 (enzyme; other documents disagree on this pair) (P04406 whole entry): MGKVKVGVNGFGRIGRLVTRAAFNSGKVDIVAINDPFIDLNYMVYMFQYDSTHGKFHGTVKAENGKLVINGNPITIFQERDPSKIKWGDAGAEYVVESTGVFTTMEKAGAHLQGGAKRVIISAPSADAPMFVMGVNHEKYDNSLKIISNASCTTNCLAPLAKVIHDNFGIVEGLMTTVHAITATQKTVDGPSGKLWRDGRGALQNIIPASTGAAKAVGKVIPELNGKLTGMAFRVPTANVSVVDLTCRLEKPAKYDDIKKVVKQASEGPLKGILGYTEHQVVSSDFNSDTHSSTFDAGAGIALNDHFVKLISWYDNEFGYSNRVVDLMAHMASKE

stoichiometry N: 4
Substance: endogenous human glyceraldehyde 3-phosphate dehydrogenase (GAPDH), 3xFLAG-tagged by CRISPR/Cas9 knock-in, P04406 1-335 (enzyme; other documents disagree on this pair)
